Measurements as given in patent publication US20050234225A1 (Eli Lilly, published 2005).
Substitutions are numbered along the chain they refer to. Each block holds one binder with its values, some of them ahead of it.

Experiments:
[1] = biological target: T1, Flk-1-AP soluble fusion protein (murine, UniProt P35918 20-762); test: competitive blocking ELISA: Fab pre-incubated with Flk-1-AP, then binding of Flk-1-AP to immobilised VEGF165, A405
T1 construct: Soluble fusion protein from NIH 3T3 cells; also called fetal liver kinase 1; not shown: alkaline phosphatase (AP) fusion partner
T1 sequence (P35918 20-762): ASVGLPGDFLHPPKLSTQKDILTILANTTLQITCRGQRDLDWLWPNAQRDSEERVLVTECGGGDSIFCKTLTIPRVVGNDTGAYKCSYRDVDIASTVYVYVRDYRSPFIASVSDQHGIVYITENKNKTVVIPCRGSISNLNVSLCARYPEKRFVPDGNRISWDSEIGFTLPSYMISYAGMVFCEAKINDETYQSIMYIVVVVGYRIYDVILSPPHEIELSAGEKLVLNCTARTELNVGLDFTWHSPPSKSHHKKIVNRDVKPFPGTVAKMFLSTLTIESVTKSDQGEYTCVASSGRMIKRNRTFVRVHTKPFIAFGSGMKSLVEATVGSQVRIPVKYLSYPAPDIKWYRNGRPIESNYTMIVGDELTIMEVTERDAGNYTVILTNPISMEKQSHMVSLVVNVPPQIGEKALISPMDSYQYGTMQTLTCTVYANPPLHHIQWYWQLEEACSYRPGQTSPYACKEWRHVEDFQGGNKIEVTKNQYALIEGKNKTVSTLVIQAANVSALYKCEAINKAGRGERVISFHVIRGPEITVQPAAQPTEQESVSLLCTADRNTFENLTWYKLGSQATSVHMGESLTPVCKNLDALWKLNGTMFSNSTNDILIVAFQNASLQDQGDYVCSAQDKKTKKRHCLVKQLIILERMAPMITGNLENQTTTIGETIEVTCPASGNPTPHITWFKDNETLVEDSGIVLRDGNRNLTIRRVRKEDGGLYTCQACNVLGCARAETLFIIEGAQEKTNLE

[2] = biological target: T2, KDR-alkaline phosphatase (AP) soluble fusion protein (human, UniProt P35968 20-764); test: BIAcore SPR, KDR immobilized
T2 construct: Expressed in NIH 3T3 cells as in Lu et al. 2000; also called KDR-AP; full length KDR-AP; not shown: alkaline phosphatase (AP) fusion partner
T2 sequence (P35968 20-764): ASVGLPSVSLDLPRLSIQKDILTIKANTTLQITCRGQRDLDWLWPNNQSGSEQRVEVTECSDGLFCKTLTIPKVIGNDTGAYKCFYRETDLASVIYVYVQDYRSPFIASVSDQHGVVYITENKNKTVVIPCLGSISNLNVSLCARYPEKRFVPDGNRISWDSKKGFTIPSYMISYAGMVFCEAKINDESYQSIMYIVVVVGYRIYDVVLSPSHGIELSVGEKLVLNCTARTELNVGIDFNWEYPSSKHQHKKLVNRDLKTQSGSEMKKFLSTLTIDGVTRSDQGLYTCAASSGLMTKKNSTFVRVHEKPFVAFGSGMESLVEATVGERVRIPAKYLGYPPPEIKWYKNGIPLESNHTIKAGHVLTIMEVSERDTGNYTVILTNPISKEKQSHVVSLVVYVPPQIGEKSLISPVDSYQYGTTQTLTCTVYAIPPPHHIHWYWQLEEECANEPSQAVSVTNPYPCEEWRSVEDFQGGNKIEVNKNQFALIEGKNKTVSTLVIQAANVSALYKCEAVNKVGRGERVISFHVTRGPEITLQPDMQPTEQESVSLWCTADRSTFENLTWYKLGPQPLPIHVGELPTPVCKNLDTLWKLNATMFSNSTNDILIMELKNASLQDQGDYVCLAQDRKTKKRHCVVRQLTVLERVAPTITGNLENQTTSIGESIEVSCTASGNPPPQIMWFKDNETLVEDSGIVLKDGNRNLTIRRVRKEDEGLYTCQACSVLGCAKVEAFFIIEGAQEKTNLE
Description: The binding kinetics of soluble Fab proteins to KDR were measured by surface plasmon resonance using a BIAcore biosensor (Pharmacia Biosensor). KDR-AP fusion protein was immobilized onto a sensor chip and soluble Fab proteins were injected at concentrations ranging from 1.5 nM to 100 nM. Sensorgrams were obtained at each concentration and were evaluated using a program, BIA Evaluation 2.0, to determine the rate constants kon and koff. Kd was calculated from the ratio of rate constants koff/kon.
Antibody affinity or avidity was determined by BIAcore analysis, as above. The binding kinetics, i.e., the association rate constant (kon) and the dissociation rate constant (koff), of the anti-KDR antibodies were measured and the dissociation constant, Kd, was calculated (Table 4).

[3] = biological target: T2, KDR-alkaline phosphatase (AP) soluble …; test: direct binding ELISA: Fab on KDR-coated plate, detected with anti-human Fab-HRP, A450
Description: (§1) In a direct binding assay, various amounts of soluble Fab proteins were added to KDR-coated 96-well Maxi-sorp microtiter plates and incubated at RT for 1 h, after which the plates were washed 3 times with PBST. The plates were then incubated at RT for 1 h with 100 μl of a rabbit anti-human Fab antibody-HRP conjugate (Jackson ImunoResearch Laboratory Inc., West Grove, Pa.). The plates were washed and developed following the procedure described above for the phage ELISA. In a competitive KDR/VEGF blocking assay, various amounts of Fab proteins were mixed with a fixed amount of KDR-AP (100 ng) and incubated at RT for 1 h. The mixtures were then transferred to 96-well microtiter plates precoated with VEGF₁₆₅ (200 ng/well) and incubated at RT for an additional 2 h, after which the plates were washed 5 times and the substrate for AP (p-nitrophenyl phosphate, Sigma) was added. Absorbance at 405 nm was measured to quantify the bound KDR-AP molecules (8).
(§2) Clone D2C6 and D2H2 are more efficient binders, followed by clone D1H4 and D1F7. All four Fabs also block KDR binding to immobilized VEGF (FIG. 2B). […] Only clone D1F7 blocks VEGF from binding to Flk-1 (FIG. 2C), with an IC₅₀ of approximately 15 nM.

cell-surface KDR = cell-surface KDR (human, UniProt P35968 20-1356); test: cell-based or functional assay
Chain of cell-surface KDR (P35968 20-1356): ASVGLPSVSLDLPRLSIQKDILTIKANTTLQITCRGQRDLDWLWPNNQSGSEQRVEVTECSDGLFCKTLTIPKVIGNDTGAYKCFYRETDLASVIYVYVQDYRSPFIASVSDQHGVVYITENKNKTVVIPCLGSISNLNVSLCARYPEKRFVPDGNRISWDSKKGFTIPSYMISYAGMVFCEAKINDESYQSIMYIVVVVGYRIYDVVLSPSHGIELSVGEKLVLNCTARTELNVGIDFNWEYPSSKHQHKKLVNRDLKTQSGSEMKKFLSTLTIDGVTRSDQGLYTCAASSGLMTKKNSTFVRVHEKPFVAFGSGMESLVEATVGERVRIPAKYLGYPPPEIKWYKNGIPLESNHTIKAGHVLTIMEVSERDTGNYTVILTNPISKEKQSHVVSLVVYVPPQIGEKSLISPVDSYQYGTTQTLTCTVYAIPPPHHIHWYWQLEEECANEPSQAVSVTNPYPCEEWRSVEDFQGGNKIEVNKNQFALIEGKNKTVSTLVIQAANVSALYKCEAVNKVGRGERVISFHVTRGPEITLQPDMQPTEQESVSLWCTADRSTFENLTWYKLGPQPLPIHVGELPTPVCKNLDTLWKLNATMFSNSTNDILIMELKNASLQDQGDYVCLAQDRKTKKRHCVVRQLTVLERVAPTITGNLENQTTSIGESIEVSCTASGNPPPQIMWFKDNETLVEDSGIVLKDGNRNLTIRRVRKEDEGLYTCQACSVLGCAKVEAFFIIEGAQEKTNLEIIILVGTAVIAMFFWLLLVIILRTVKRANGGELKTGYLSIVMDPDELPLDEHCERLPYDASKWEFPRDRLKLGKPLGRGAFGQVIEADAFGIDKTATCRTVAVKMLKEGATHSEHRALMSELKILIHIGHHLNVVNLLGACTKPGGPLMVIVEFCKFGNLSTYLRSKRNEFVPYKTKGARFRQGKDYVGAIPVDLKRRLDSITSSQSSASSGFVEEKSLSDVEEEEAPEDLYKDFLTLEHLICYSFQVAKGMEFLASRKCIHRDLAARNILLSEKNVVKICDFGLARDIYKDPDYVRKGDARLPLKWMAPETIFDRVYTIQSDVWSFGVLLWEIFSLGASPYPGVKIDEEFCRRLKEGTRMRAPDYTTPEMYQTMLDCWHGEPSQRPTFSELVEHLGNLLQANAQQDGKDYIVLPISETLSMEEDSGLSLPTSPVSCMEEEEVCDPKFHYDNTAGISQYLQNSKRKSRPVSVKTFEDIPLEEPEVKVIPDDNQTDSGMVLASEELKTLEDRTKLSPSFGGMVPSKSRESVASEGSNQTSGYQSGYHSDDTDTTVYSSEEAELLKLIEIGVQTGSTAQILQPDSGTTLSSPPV

[4] = biological target: T2, KDR-alkaline phosphatase (AP) soluble …; test: competitive blocking ELISA: Fab pre-incubated with KDR-AP, then binding of KDR-AP to immobilised VEGF165, A405
Description: FIG. 2 depicts binding to KDR, blocking of KDR/VEGF interaction and blocking of Flk-1/VEGF interaction by human anti-KDR Fab fragments. FIG. 2A: Dose-dependent binding of human anti-KDR Fab to immobilized KDR. FIG. 2B: Inhibition of KDR binding to immobilized VEGF by anti-KDR Fab. FIG. 2C: Inhibition of Flk-1 binding to immobilized VEGF by anti-KDR Fab. Various amounts of Fab proteins were incubated with a fixed amount of KDR-AP (2B) or Flk-1-AP (2C) in solution at RT for 1 h.
as §1, §2

[5] = biological target: T2, KDR-alkaline phosphatase (AP) soluble …; test: competitive blocking ELISA: antibody pre-incubated with KDR-AP, then binding of KDR-AP to immobilised VEGF165, A405
Description: (§3) FIG. 6 depicts binding to KDR and blocking of KDR/VEGF interaction by human anti-KDR antibodies. FIG. 6A: Dose-dependent binding of anti-KDR to immobilized KDR. Various amounts of antibodies were incubated at RT for 1 h in 96-well plates coated with KDR FIG. 6B: Inhibition of binding of KDR to immobilized VEGF by human anti-KDR antibodies. Various amounts of the antibodies were incubated with a fixed amount of KDR-AP in solution at RT for 1 hr.
The efficacy of the anti-KDR antibodies for blocking KDR from binding to VEGF was measured with a competition assay. Various amounts of antibodies were mixed with a fixed amount of KDR-AP (100 ng) and incubated at RT for 1 h. The mixtures were then transferred to 96-well microtiter plates precoated with VEGF₁₆₅ (200 ng/well) and incubated at RT for an additional 2 h, after which the plates were washed 5 times and the substrate for AP (p-nitrophenyl phosphate, Sigma) was added, followed by reading the absorbance at 405 nm to quantify the bound KDR-AP molecules. […] The IC₅₀ is approximately 0.8 to 1.0 nM for all three antibodies.

[6] = biological target: T2, KDR-alkaline phosphatase (AP) soluble …; test: BIAcore SPR, KDR immobilized; remark: listed apart in the source
[7] = biological target: T2, KDR-alkaline phosphatase (AP) soluble …; test: direct binding ELISA: antibody on KDR-coated plate, detected with anti-human IgG Fc-HRP, A450
Description: as §3
Anti-KDR antibodies were assessed for KDR binding and blocking of VEGF binding. In the direct binding assay, various amounts of antibodies were added to KDR-coated 96-well Maxi-sorp microtiter plates (Nunc, Roskilde, Denmark) and incubated at room temperature (RT) for 1 h, after which the plates were washed 3 times with PBS containing 0.1% Tween-20. The plates were then incubated at RT for 1 h with 100 μl of a rabbit anti-human IgG Fc-HRP conjugate (Jackson ImmunoResearch Laboratory Inc., West Grove, Pa.). The plates were washed and developed as above.

binding result [1]: no binding (tested: about 60 nM)
Kd [2]: 3.6 nM
koff [2]: 0.00055 s⁻¹
kon [2]: 171000 M⁻¹ s⁻¹
EC50 (read off the curve) [3]: ~0.7 nM
EC50 of inhibition of VEGF-stimulated [3H]-TdR incorporation in HUVEC (cell-surface KDR): ~0.5 nM
IC50 (read off the curve) [4]: ~3 nM
B1: D2C6 Fab (Fab, V domains shown)
VH: EVQLVQSGGGLVKPGGSLRLSCAASGFTFSSYSMNWVRQAPGKGLEWVSSISSSSSYIYYADSVKGRFTISRDNAKNSLYLQMNSLRAEDTAVYYCARVTDAFDIWGQGTMVTVSS
VL: EIVMTQSPATLSLSPGERATLSCRASQSVSSYLAWYQQKPGQAPRLLIYDSSNRATGIPARFSGSGSGTDFTLTISSLEPEDFATYYCLQHNTFPPTFGQGTKVEIK
notes: Soluble human Fab from E. coli HB2151; also called Hu-2C6 Fab; Hu-2C6

IC50 (read off the curve) [5]: ~0.8 nM
fold increase in overall binding avidity against Hu-1121 Fab [6]: ~2 fold
Kd [2]: 0.05 nM
koff [2]: 2.5e-05 s⁻¹
kon [2]: 479000 M⁻¹ s⁻¹
EC50 (read off the curve) [7]: ~0.3 nM
B2: IMC-1121 IgG (antibody, V domains shown)
VH: B1 VH
VL: DIQMTQSPSSVSASIGDRVTITCRASQGIDNWLGWYQQKPGKAPKLLIYDASNLDTGVPSRFSGSGSGTYFTLTISSLQAEDFAVYFCQQAKAFPPTFGGGTKVDIK

binding result [1]: no binding (tested: about 60 nM)
EC50 (read off the curve) [3]: ~0.7 nM
EC50 of inhibition of VEGF-stimulated [3H]-TdR incorporation in HUVEC (cell-surface KDR): ~0.8 nM
IC50 (read off the curve) [4]: ~2 nM
B3: D2H2 Fab (Fab, V domains shown)
VH: B1 VH with N77D
VL: DIQLTQSPSSVSASVGDRVTITCRASQGISSRLAWYQQKPGKAPKLLIYAASSLQTGVPSRFSGSGSGTDFTLTISSLQPEDFATYYCQQANRFPPTFGPGTKVDIK
notes: Soluble human Fab from E. coli HB2151; also called Hu-2H2 Fab

fold improvement in Kd against Hu-2C6 [6]: 33 fold
Kd [2]: 0.11 nM
koff [2]: 3.1e-05 s⁻¹
kon [2]: 296000 M⁻¹ s⁻¹
B4: Hu-1121 Fab (Fab, V domains shown)
VH: B1 VH
VL: B2 VL
notes: see also CLM-00007) with new light chains

IC50 (read off the curve) [5]: ~0.7 nM
fold change of Kd against the monovalent Hu-2C6 Fab [6]: ~18 fold
Kd [2]: 0.2 nM
koff [2]: 4.3e-05 s⁻¹
kon [2]: 212000 M⁻¹ s⁻¹
EC50 (read off the curve) [7]: ~0.4 nM
B5: IMC-2C6 IgG (antibody, V domains shown)
VH: B1 VH
VL: B1 VL

binding result [1]: no binding (tested: about 60 nM)
EC50 (read off the curve) [3]: ~1 nM
EC50 of inhibition of VEGF-stimulated [3H]-TdR incorporation in HUVEC (cell-surface KDR): ~0.5 nM
IC50 (read off the curve) [4]: ~2 nM
B6: D1H4 Fab (Fab, V domains shown)
VH: B1 VH
VL: QSALTQPASLSGSPGQSITISCAGTTTDLTYYDLVSWYQQHPGQAPKLVIYDGNKRPSGVSNRFSGSKSGNTASLTISGLQAEDEADYYCNSYVSSRFYVFGTGTKVTVL
notes: Soluble human Fab from E. coli HB2151; also called DlH4; Hu-1H4 Fab

EC50 of inhibition of VEGF-stimulated [3H]-TdR incorporation in HUVEC (cell-surface KDR): ~15 nM
B7: D1F7 Fab (Fab, V domains shown)
VH: EVQLVQSGAEVKKPGASVKVSCKASGGTFSSYAISWVRQAPGQGLEWMGGIIPIFGTANYAQKFQGRVTFTADKSTSTAYMELRSLRSDDTAVYYCARGYDYYDSSGVASPFDYWGQGTLVTVSS
VL: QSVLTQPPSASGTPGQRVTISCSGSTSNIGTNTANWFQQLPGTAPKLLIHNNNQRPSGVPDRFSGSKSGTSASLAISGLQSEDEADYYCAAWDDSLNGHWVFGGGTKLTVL
